Patent US20210017555A1, “METHOD FOR PRODUCING 4-AMINOCINNAMIC ACID, AND VECTOR AND HOST CELL USED IN SAME” (JAPAN SCIENCE AND TECHNOLOGY AGENCY, priority 2018, published 2021)

Experiments:
[1] = Resting-cell reaction of scFrm2-, scHbn1-, cdFLDZ-producing E. coli, 4-nitrocinnamic acid to 4-aminocinnamic acid; assay type: cell-based, Escherichia coli; details: resting cells, 2.5 mM 4-nitrocinnamic acid, 30° C., 12 hours, pH 7.0; versus control E. coli
Procedure: Each of the scFrm2-, scHbn1-, and cdFLDZ-producing Escherichia coli strains were precultured using 3 mL of LB medium containing 30 mg/L kanamycin sulfate at 28° C. for 16 hours with shaking at 300 rpm. 1 mL of this preculture liquid was inoculated to 100 mL of LB medium containing 30 mg/L kanamycin sulfate, cultured at 30° C. for 4 hours with shaking at 120 rpm, and after 0.1 mM IPTG was added, incubated further at 20° C. for 12 hours. The obtained bacterial cells were washed twice with a reaction buffer (100 mM potassium dihydrogen phosphate (KH2PO4), 1 mM magnesium sulfate (MgSO4), 0.5 mM thiamine chloride, pH 7.0).
The resting cells thus obtained were suspended in a reaction buffer containing 2.5 mM 4-nitrocinnamic acid, and reacted at 30° C. for 12 hours with shaking at 300 rpm. After the reaction, the reaction supernatant was collected to quantify 4-aminocinnamic acid. The supernatant was transferred to a centrifuge tube, collected by centrifugation, and the reaction product was quantified using the above HPLC.
(§1) The same experiment was also performed using the host Escherichia coli as a control.

[2] = Deammonase activity of purified enzymes by absorptiometry; assay type: biochemical; details: purified recombinant enzyme 2 mg/mL, 50 mM Tris-HCl pH 8.6, 0.3 to 9.6 mM substrate, 380 nm, 10 minutes
Procedure: • Apparatus: BECKMAN COULTER DU800 UV/Vis Spectrophotometer • Amount of enzyme: 2mg/mL • Buffer solution: 50mM Tris-HCl buffer (pH=8.6) • Concentration of substrate: 0.3mM to 9.6mM • Volume: 200μL • Measurement wavelength: From 4-nitrophenylalanine to 380 nm 4-nitrocinnamic acid: From phenylalanine to 305 nm cinnamic acid: • Measurement period: 10 minutes • Measurement temperature: 25° C.
Each of the CamPAL-, LiePAL-, and RgPAL-producing Escherichia coli strains was inoculated to 5 mL of LB medium containing 30 mg/L kanamycin sulfate, and cultured at 28° C. for 16 hours (hereinafter also may be referred to as “preculture”). […]
The enzyme activity was measured and quantified by measuring the absorbance of the reaction product at the absorption wavelength for 10 minutes using an absorptiometer.
Specifically, regarding the deammonase activity for phenylalanine, 2 mg/mL of each of the above enzymes was added to 50 mM Tris-HCl buffer (pH=8.6) containing 0.3 to 9.6 mM phenylalanine to cause reaction, and the change in absorbance at a wavelength of 305 nm resulting from the formation of cinnamic acid was measured for 10 minutes. […]

[3] = Resting-cell reaction of PAL-producing E. coli, 4-nitrophenylalanine to 4-nitrocinnamic acid; assay type: cell-based, Escherichia coli; details: resting cells, 24 hours, 28° C., pH 8.5, 20 mM 4-nitrophenylalanine; versus control Escherichia coli
Procedure: The CamPAL-, LiePAL-, and RgPAL-producing Escherichia coli strains mentioned above were precultured using 3 mL of LB medium containing 40 mg/L kanamycin sulfate at 28° C. for 16 hours with stirring at 300 rpm. 1 mL of this pre-cultured liquid was inoculated to 100 mL of LB medium containing 40 mg/L of kanamycin sulfate, cultured at 30° C. for 4 hours with shaking at 120 rpm, and after the addition of 0.5 mM of IPTG, incubated further for 20 hours. The obtained bacterial cells were washed twice with a reaction buffer (100 mM Tris-HCl buffer, pH 8.5).
The resting cells obtained were suspended in a reaction buffer and reacted at 28° C. with shaking at 300 rpm. 20 mM of 4-nitrophenylalanine was added to the medium every 24 hours while the reaction was continued. The reaction supernatant was periodically collected to quantify 4-nitrophenylalanine and 4-nitrocinnamic acid.
The supernatant was transferred to a centrifuge tube, collected by centrifugation, and the reaction product was quantified using high performance liquid chromatography (HPLC).
as §1

[4] = Enzyme activities of nfsA and nfsB in cell reactions, 4-nitrocinnamic acid to 4-aminocinnamic acid; assay type: cell-based, Escherichia coli; details: 2 g/L 4-nitrocinnamic acid, 2% glycerol, pH 8.0, 37° C., 18 hours
Procedure: Each of the nfsA- and nfsB-producing Escherichia coli strains was precultured using 5 mL of LB medium containing 40 mg/L of streptomycin sulfate at 28° C. for 16 hours with shaking at 300 rpm. 1 mL of this pre-cultured solution was inoculated to 100 mL of TB medium containing 80 mg/L streptomycin sulfate, cultured at 30° C. for 4 hours with shaking at 120 rpm. 0.1 mM IPTG was added, and the culture was further incubated at 30° C. for another 18 hours.
The pH of the culture medium containing the obtained bacterial cells was adjusted to 8.0 by addition of 2N NaOH. 2 g/L of 4-nitrocinnamic acid and 2% final concentration of glycerol were suspended in this culture medium, and the reaction was carried out at 37° C. for 18 hours with shaking at 120 rpm. After the reaction, the reaction solution supernatant was collected to quantify 4-aminocinnamic acid. Specifically, the supernatant was transferred to a centrifuge tube, collected by centrifugation, and the reaction product was quantified using the above HPLC.
The same experiment was also carried out using the host Escherichia coli as a control.

B1: cdFLDZ: enzyme derived from Clostridium difficile, SEQ ID NO: 11, expressed in E. coli (protein)
chain: MKISSMFTPIRIGSMTVPNRFVVPPMGNNFANTDGTLSETSKAYYLERALGGFGLITIESSVVDKKAKGGPRKPCLYDDSTIDSFKNVIDACHDAGSKVSIQLQHAGSEGNEKVAGHPLKAASAIPASNGRNTPLAITTEEIYELIESYGDAALRAQKAGADAVEVHCAHGYLVSSFISQRTNKRVDEFGGCFENRMRLPRLIIENIRKKVGNSLAILCRINSTDDVPGGIDVHDSSVIAAYLEDCGIDGLHVSRSIHIHDEYMWAPTTLHAGFSAELVTEIKKAVSIPVITVGRYTEPQFAELMVRQGRCDLVAFGRQSLADPEMPNKAKNGKLDEMIPCIACLQGCVPNMFQGKPIACLANPILGHEAELKPAEISKEVLVVGGGVGGMLAAWVCAKRGHNVTLVEKSEVLGGQMRLAAYPPGKGDITNLVRSYISKCNQYGVKICTNTEATVELIKEKSPDVVIIATGATPLVLPIPGINDSGLIHAVDLLDGKKSCGKKVLVVGGGMVGCEVAAFLGEQEHEVTVIELREEVGADVISEHRKFLMNDFENYNIHTITGAKVSKFYDDGVDYLLTDGTEHDLKGFDSVVLAMGSRNYDPLSEVIKEVVKETYIVGDAVKARRALDATKEAFEVALNI
modifications: Clostridium difficile; cdFLDZ Polypeptide
amount of 4-aminocinnamic acid in the medium supernatant [1]: remarkably increased as compared with the control E. coli

B2: scFrm2: enzyme (nitroreductase) derived from Saccharomyces cerevisiae, SEQ ID NO:7, expressed in E. coli (protein, listed as Saccharomyces cerevisiae)
chain: MSPTGNYLNAITNRRTIYNLKPELPQGVGLDDVKRTVHVILKNTPTAFNSQVNRAVIIVGDTHKRIWDAVASAMPTAEAKKRPESCRDEAYGSVIFFTDEGPTEKLQRDFPALAAAFPTCAAHTTGAVQIQSWTALELLGLGANLQHYNDYVKSALPQDVPIAWTVQSQLVFGVPTALPEEKTFINNVINVYH
modifications: scFrm2 Polypeptide
amount of 4-aminocinnamic acid in the medium supernatant [1]: remarkably increased as compared with the control E. coli

B3: RgPAL: phenylalanine ammonia-lyase derived from yeast Rhodotorula glutinis JN-1, SEQ ID NO: 5, expressed in E. coli (protein, listed as Rhodotorula glutinis)
chain: MAPSVDSIATSVANSLSNGLAGDLRKKTSGAGSLLPTTETTQIDIVERILADAGATDQIKLDGYTLTLGDVVGAARRGRTVKVADSPQIREKIDASVEFLRTQLDNSVYGVTTGFGGSADTRTEDAISLQKALLEHQLCGVLPTSMDGFALGRGLENSLPLEVVRGAMTIRVNSLTRGHSAVRIVVLEALTNFLNHGITPIVPLRGTISASGDLSPLSYIAASITGHPDSKVHVDGQIMSAQEAIALKGLQPVVLGPKEGLGLVNGTAVSASMATLALTDAHVLSLLAQANTALTVEAMVGHAGSFHPFLHDVTRPHPTQIEVARNIRTLLEGSKYAVHHETEVKVKDDEGILRQDRYPLRCSPQWLGPLVSDMIHAHSVLSLEAGQSTTDNPLIDLENKMTHHGGAFMASSVGNTMEKTRLAVALMGKVSFTQLTEMLNAGMNRALPSCLAAEDPSLSYHCKGLDIAAAAYTSELGHLANPVSTHVQPAEMGNQAINSLALISARRTAEANDVLSLLLATHLYCVLQAVDLRAMEFEHTKEFEPMVTDLLKQHFGALATADVEDKVRKSIYKRLQQNNSYDLEQRWHDTFSVATGAVVEALAGNEVSLASLNAWKVACAEKAIALTRTVRDSFWAAPSSASPALKYLSPRTRILYSFVREDVGVKARRGDVYLGKQEVTIGTNVSRIYEAIKDGRIAPVLVKMMA
modifications: RgPAL Polypeptide
capacity to convert 4-nitrophenylalanine to 4-nitrocinnamic acid [2]: have a capacity to covert 4-nitrophenylalanine to 4-nitrocinnamic acid | amount of 4-nitrocinnamic acid in the reaction supernatant [3]: significantly higher than that of the control Escherichia coli

B4: nfsB: nitroreductase derived from Escherichia coli, SEQ ID NO:15, overexpressed in E. coli (protein, listed as Escherichia coli)
chain: MDIISVALKRHSTKAFDASKKLTPEQAEQIKTLLQYSPSSTNSQPWHFIVASTEEGKARVAKSAAGNYVFNERKMLDASHVVVFCAKTAMDDVWLKLVVDQEDADGRFATPEAKAANDKGRKFFADMHRKDLHDDAEWMAKQVYLNVGNFLLGVAALGLDAVPIEGFDAAILDAEFGLKEKGYTSLVVVPVGHHSVEDFNATLPKSRLPQNITLTEV
modifications: nfsB Polypeptide
4-aminocinnamic acid converted from 4-nitrocinnamic acid [4]: 0.76 g/L

B5: scHbn1: enzyme (nitroreductase) derived from Saccharomyces cerevisiae, SEQ ID NO:9, expressed in E. coli (protein, listed as Saccharomyces cerevisiae)
chain: MSAVATYLKTLTARRTIYALKPELPGEITINDIQSVVQTIIKETPTAFNSQPNRAVILTGETHKKVWDEVTKAIESPAGQKRPASARDEAFGSVIFFTDDKVTEKLKADFPAYAAAFPSFADHTSGAAQINSWVALEAMGLGGHLQHYNGYIKAALPSKIPESWTVQAQLVFGTPAAPPGEKTYIKNDVEIFN
modifications: scHbn1 Polypeptide
amount of 4-aminocinnamic acid in the medium supernatant [1]: remarkably increased as compared with the control E. coli

B6: nfsA: nitroreductase derived from Escherichia coli, SEQ ID NO: 13, overexpressed in E. coli (protein, listed as Escherichia coli)
chain: MTPTIELICGHRSIRHFTDEPISEAQREAIINSARATSSSSFLQCSSIIRITDKALREELVTLTGGQKHVAQAAEFWVFCADFNRHLQICPDAQLGLAEQLLLGVVDTAMMAQNALIAAESLGLGGVYIGGLRNNIEAVTKLLKLPQHVLPLFGLCLGWPADNPDLKPRLPASILVHENSYQPLDKGALAQYDEQLAEYYLTRGSNNRRDTWSDHIRRTIIKESRPFILDYLHKQGWATR
modifications: nfsA Polypeptide
4-aminocinnamic acid converted from 4-nitrocinnamic acid [4]: 0.26 g/L
